Reference: article PMC1891289, “Improvement of activity and stability of chloroperoxidase by chemical modification” (BMC Biotechnology, 2007)

Legend:
purified protein [1] = substrate: CSc1ccccc1; assay: purified protein; type: biochemical, Leptoxyphium fumago; conditions: 50 mM sodium citrate pH 5.0, 300 μM H2O2, room temperature, apparent, native enzyme
purified protein [2] = substrate: Oc1ccccc1; assay: purified protein; type: biochemical, Leptoxyphium fumago; conditions: 50 mM sodium citrate pH 5.0, 0.2 mM H2O2, 2.4 mM 4-aminoantipyrine, 30 °C in methods (room temperature in text), apparent, native enzyme

B1: Chloroperoxidase (CPO) (Leptoxyphium fumago) (protein)
chain: QEPGSGIGYPYDNNTLPYVAPGPTDSRAPCPALNALANHGYIPHDGRAISRETLQNAFLNHMGIANSVIELALTNAFVVCEYVTGSDCGDSLVNLTLLAEPHAFEHDHSFSRKDYKQGVANSNDFIDNRNFDAETFQTSLDVVAGKTHFDYADMNEIRLQRESLSNELDFPGWFTESKPIQNVESGFIFALVSDFNLPDNDENPLVRIDWWKYWFTNESFPYHLGWHPPSPAREIEFVTSASSAVLAASVTSTPSSLPSGAIGPGAEAVPLSFASTMTPFLLATNAPYYAQDPTLGPND
notes: not chemically modified
Km (purified protein [1]): 1640 ± 90 µM
Km (purified protein [2]): 350 ± 10 µM
